Test results published in US20240287172A1 (SCIRHOM, published 2024).

T1: hiR2-FL-K536-T7 (deletion of K536) (human, UniProt Q6PJF5 1-856)
T1 construct: single amino acid deletion
T1 sequence: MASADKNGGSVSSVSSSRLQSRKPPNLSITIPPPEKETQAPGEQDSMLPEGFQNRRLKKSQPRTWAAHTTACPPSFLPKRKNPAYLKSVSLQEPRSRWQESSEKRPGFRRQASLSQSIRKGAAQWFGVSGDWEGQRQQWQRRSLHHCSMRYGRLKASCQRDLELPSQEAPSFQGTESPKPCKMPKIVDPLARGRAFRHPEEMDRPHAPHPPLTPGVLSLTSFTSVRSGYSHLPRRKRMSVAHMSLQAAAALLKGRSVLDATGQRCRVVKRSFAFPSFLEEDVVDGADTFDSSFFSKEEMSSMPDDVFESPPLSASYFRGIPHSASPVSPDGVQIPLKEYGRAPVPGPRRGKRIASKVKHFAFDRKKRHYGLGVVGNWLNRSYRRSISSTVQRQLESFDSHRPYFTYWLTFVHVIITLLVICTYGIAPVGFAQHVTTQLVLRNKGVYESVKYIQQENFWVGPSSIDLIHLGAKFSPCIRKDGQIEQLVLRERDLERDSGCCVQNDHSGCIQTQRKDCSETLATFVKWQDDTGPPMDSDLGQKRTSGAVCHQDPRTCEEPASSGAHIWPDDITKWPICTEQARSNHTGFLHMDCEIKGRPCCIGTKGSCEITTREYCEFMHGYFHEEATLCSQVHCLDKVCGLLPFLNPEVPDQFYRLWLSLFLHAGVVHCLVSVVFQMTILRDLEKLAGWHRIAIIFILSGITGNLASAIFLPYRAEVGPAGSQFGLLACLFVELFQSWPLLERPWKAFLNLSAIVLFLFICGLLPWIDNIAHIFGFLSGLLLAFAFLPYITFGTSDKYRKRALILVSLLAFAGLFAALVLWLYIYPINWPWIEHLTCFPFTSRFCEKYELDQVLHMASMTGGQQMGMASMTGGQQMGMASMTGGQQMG


Target: T1, hiR2-FL-K536-T7 (deletion of K536)
Test: FACS, MEF-DKO cells, 3 µg/ml
Source text: In brief, immortalized MEF-DKO-hiR2-FL-G498A-T7, MEF-DKO-hiR2-FL-Q502R-T7, MEF-DKO-hiR2-FL-I509V-T7, MEF-DKO-hiR2-FL-Q512S-T7, MEF-DKO-hiR2-FL-R513E-T7, MEF-DKO-hiR2-FL-K514E-T7, MEF-DKO-hiR2-FL-D515E-T7, MEF-DKO-hiR2-FL-E518S-T7, MEF-DKO-hiR2-FL-T522V-T7, MEF-DKO-hiR2-FL-F523W-T7, MEF-DKO-hiR2-FL-Q527P-T7, MEF-DKO-hiR2-FL-D528I-T7, MEF-DKO-hiR2-FL-D529H-T7, MEF-DKO-hiR2-FL-T530P-T7, MEF-DKO-hiR2-FL-G531S-T7, MEF-DKO-hiR2-FL-P532A-T7, MEF-DKO-hiR2-FL-M534-T7, MEF-DKO-hiR2-FL-D535-T7, MEF-DKO-hiR2-FL-K536-T7, MEF-DKO-hiR2-FL-S537E-T7, MEF-DKO-hiR2-FL-D538L-T7, MEF-DKO-hiR2-FL-L539A-T7, MEF-DKO-hiR2-FL-Q541H-T7, MEF-DKO-hiR2-FL-T544Q-T7, MEF-DKO-hiR2-FL-S545F-T7, MEF-DKO-hiR2-FL-A547S-T7, MEF-DKO-hiR2-FL-T555V-T7, MEF-DKO-hiR2-FL-E557D-T7, MEF-DKO-hiR2-FL-A560S-T7 and MEF-DKO-hiR2-FL-S562E-T7 cells were harvested with 10 mM EDTA in PBS, washed and resuspended in FACS buffer (PBS, 3% FBS, 0.05% sodium azide), and seeded in Nunc U-bottom 96-well plates (Thermo Fisher Scientific, USA) at approximately 3×10⁵ cells per well. To pellet cells and remove supernatants, the plates were centrifuged at 1,500 rpm and 4° C. for 3 minutes. For primary staining, cells were resuspended in 100 μl per well of either FACS buffer alone (controls) or the purified antibodies 3, 5, 16, 22, 34, 42, 43, 44, 48, and 50 of the invention at 3 μg/ml in FACS buffer and incubated on ice for 1 hour. Afterwards, plates were centrifuged at 1,500 rpm and 4° C. for 3 minutes and washed twice with 200 μl per well of FACS buffer. For secondary staining, cells were spun down and resuspended in 100 μl per well of PE-conjugated goat anti-mouse IgG F(ab′)2 detection fragment (Dianova, Germany) diluted 1:100 in FACS buffer. Protected from light, the cell suspensions were incubated on ice for 1 hour. Plates were then centrifuged at 1,500 rpm and 4° C. for 3 minutes and washed three times with 200 μl per well of FACS buffer. Finally, cells were resuspended in 150 μl per well of FACS buffer and analyzed using a BD Accuri™ C6 Plus flow cytometer (Becton Dickinson, Germany).

Row | Binder | loss of binding vs wild type
1 | antibody 5 (antibody, V domains shown, mouse IgG, kappa light chain; also called clone #5; purified antibody 5) VH: QVTLKESGPGILQPSQTLSLTCSFSGFSLSTFGMGVGWIRQPSGKGLEWLAHIWWDDEKYYNSALKSRLTISKATSKNQAFLKIANVDTADTATYYCARISNYGSNYWYFNVWGTGTTVTVSS VL: QVVLTQSPALMSASPGEKVTMTCSAGSSVSCMYWYQQKPGSSPRVLIYDTSNLASGVPARFTGSGSGTSYSLTISRMEAEDAASYYCQQWNSYPLTFGAGTKLELK | ≥ 95%
2 | antibody 43 (antibody, V domains shown, mouse IgG, kappa light chain; also called clone #43; purified antibody 43) VH: QVALKESGPGILQPSQTLSLTCSFSGFSLSTFGMGVGWIRQSSGKGLEWLANIWWDDDKYYNPALKSRLTISKDASKNQAFLKIANVDTADTATYYCARIGNYGSNYWYFDVWGTGTTVTVSS VL: QIVLTQSPAIMSASPGERVTMTCSANSRISYMYWYQQKPGSSPRLLIYDTSNLASGVPVRFSGSGSGTSYSLTISRMEAEDAATYNCQQWSSYPLTFGAGTKLELK | ≥ 95%
3 | antibody 44 (antibody, V domains shown, mouse IgG, kappa light chain; also called clone #44; purified antibody 44) VH: QVTLKESGPGILQPSQTLSLTCSFSGFSLSTFGMGVGWIRQPSEKGLEWLAHIWWDDDKYYNPALKSRLTISKDTSKNQIFLKITNVDTAETATYYCSRIGNYGSNYWYFDVWGTGTTVTVSS VL: QIVLTQSPAVMSASPGEKVTMTCTASSSVYYMYWYQQTPGSSPRLLIYDTSNLASGVPVRFSGSGSGTSYSLTISRMEAEDAATYYCQQWNTYPLTFGAGTKLELK | ≥ 95%
4 | antibody 42 (antibody, V domains shown, mouse IgG, kappa light chain; also called clone #42; purified antibody 42) VH: QVTLKESGPGILQPSQTLSLTCSLSGFSLSTFGRGVGWIRQPSGKGLEWLAHIWWDDEKYYNPALKSRLTISKDTSKNQVFLRIANVDTADTATYYCARIQNYGSNYWYFDVWGTGTTVTVSS VL: LIVLTQSPAIMSASPGEKVTMTCGATSRISYMFWYQQKPGSSPRVLIYDTSNLASGVPVRFSGSGSGTSYSLTISRVEAEDVATYYCQQWNSYPLTFGAGTKLELK | ≥ 95%
5 | antibody 22 (antibody, V domains shown, mouse IgG, kappa light chain; also called clone #22; purified antibody 22) VH: QVTLKESGPGILQPSQTLSLTCSFSGFSLSTFGMGVGWIRQPSGKGLEWLAHIWWDDEKYYNSALKSRLTISKATSKNQVFLKIANVDTADTATYYCARISNYGSNYWYFNVWGTGTTVTVSS VL: QVVLTQSPALMSASPGEKVTMTCSAGSSVSYMYWYQQKPGSSPRVLIYDTSNLASGVPARFTGSGSGTSYSLTISRMEAEDAATYYCQQWNSYPLTFGAGTKLELK | ≥ 95%
6 | antibody 16 (antibody, V domains shown, mouse IgG, kappa light chain; also called clone #16; purified antibody 16) VH: QVTLKESGPGILQPSQTLSLTCSFSGFSLSTFALGVGWIRQPSGRGLEWLAHIWWDDDKYYNPALKSRLTISKDTSKNHVFLKIANVDTADTATYYCARITTYYYGMDYWGQGTSVTVSS VL: DIVLSQSPATLSVTPGDSVSLFCRASQSIGNHLHWYQQESHASPRLLIKYASQSISGIPSRFSGSGSGTDFTLSINSVETEDFGMYFCQQSYNWPLTFGAGTKLELK | ≥ 95%
7 | antibody 3 (antibody, V domains shown, mouse IgG, kappa light chain; also called clone #3; purified antibody 3) VH: QVTLKESGPGILQPSQTLSLTCSFSGFSLTTFAMGIGWVRQPSGKGLEWLAHIWWDGEKYNNPVLKSRLTISKDTSKNQVFLRIANVDTPDTATYYCARISSIYYIIDNWGQGTSVTVSS VL: DIVLTQSPATLSVTPGHSVSLSCRASQSISNNLHWYQKKSHESPRLLIKYVSQSISGIPSRFSGSGSGTDFTLSINSVETEDFGMYFCQQSYNWPLTFGAGTKLELK | ≥ 95%
8 | antibody 34 (antibody, V domains shown, mouse IgG, kappa light chain; also called clone #34; purified antibody 34) VH: QVTLKESGPGILQPSQTLSLTCSFSGFSLSTFSLGVGWIRQSSGKGLEWLAHIWWDDEKYYNPALKSRLTISKDTSKNQVFLKIANVDAADTATYYCARAYYSKSYYALDYWGQGTSVTVSS VL: DIQMTQSPSSLSASLGERVSLTCRASQEISGYLSWLQQKPDGTIKRLIYAASTLDSGVPKRFSGSRSGSDYSLAISSLESEDFADYYCLQYANFPFTFGSGTKLEIK | ≥ 95%
